Laboratory results as given in the DeepSol protein solubility set.

assay: soluble on expression in E. coli; label from the status in PepcDB or PDB records

Row | Sequence | soluble on expression in E. coli
1 | MSHTVAGGGSGDHSHQVRVKAYYRGDIMITHFEPSISFEGLCNEVRDMCSFDNEQLFTMKWIDEEGDPCTVSSQLELEEAFRLYELNKDSELLIHVFPCVPERPGMPCPGEDKSIYRRGARRWRKLYCANGHTFQAKRFNRRAHCAICTDRIWGLGRQGYKCINCKLLVHKKCHKLVTIECGRHSLPQEPVMPMDQSSMHSDHAQTVIPYNPSSHESLDQVGEEKEAMNTRESGKASSSLGLQDFDLLRVIGRGSYAKVLLVRLKKTDRIYAMKVVKKELVNDDEDIDWVQTEKHVFEQASNHPFLVGLHSCFQTESRLFFVIEYVNGGDLMFHMQRQRKLPEEHARFYSAEISLALNYLHERGIIYRDLKLDNVLLDSEGHIKLTDYGMCKEGLRPGDTTSTFCGTPNYIAPEILRGEDYGFSVDWWALGVLMFEMMAGRSPFDIVGSSDNPDQNTEDYLFQVILEKQIRIPRSMSVKAASVLKSFLNKDPKERLGCLPQTGFADIQGHPFFRNVDWDMMEQKQVVPPFKPNISGEFGLDNFDSQFTNERVQLTPDDDDIVRKIDQSEFEGFEYINPLLMSAEECV | not soluble
2 | MTQITKFHGVFPPVPTIVNAQGELDKVGMATLLDHLIASKVNGVLLLGSGGEFCHMTNALRLETAEFCVRHINRRIPVLLGISSTSTQEVIEYGQHADRLEVDAVLVLNPYYARLTDEYIYHHFKTVANNIKSPVILYNFPALTGQDLSVDLITRLAQDHPNIIGIKDTVDNISHIREIINNVRPVRPDFVIFSGYDEYMMDTLILGGNGGIPATANFAPQLTCGIYRAWCEKEYETMFGLQRRLSALSTIYSLDSPFFGIIKKAIQLSGVDISTHVMPPVLPANEEHISNLKQILQRAGL | not soluble
3 | TDLDAVRIKVDTVNAKPGDTVRIPVRFSGIPSKGIANCDFVYSYDPNVLEIIEIEPGELIVDPNPTKSFDTAVYPDRKMIVFLFAEDSGTGAYAITEDGVFATIVAKVKSGAPNGLSVIKFVEVGGFANNDLVEQKTQFFDGGVNVG | soluble
4 | MSLRDIAIGASLELSGPTQSIGTAYKKALELQVDSINEQGGVLGGRKLRLVVKDNQTKPAQNITNVNDLINNDHVVAVITGGCSACTVPVTSIVEKRKVPLISLASATAITDPVAERQYTFKISPNPAQDAEVLLADLKKKGVKSVGLLNVDNPYGQEGRAAVLAQAKKAGIEVTGTQQFGQEDKDMSVQAKRLVDDRPEAVVVWAVMPAAGIIAKNLRDAEFDGGVYLDAGAGAELFVKGAQGAAEGVHMVFPRVLAIGDVTSGGDSVRKQKQWVARYTDRYQDYSGFASFAADAALMLRDAIAKSGSTDGAELRDTIETIGFDGVSGPIRNSAKEHSGLQPESLGVLVVRDGDWHLANEGHHHHHH | soluble
5 | MGSDKIHHHHHHMPGAYAHLTMVNLVKEPDRLEKQGFPPEAIVSILDYFRFCELGAVSPDYPYLDIAHSSAGQWADRMHYQRTGDMIKAGVEWIRRLDGASRQKAFSWLLGYTSHVVTDTTIHPVIELKVGEYQKNKDKHRICEMHQDAYIFQRLNLGEIGLAEHLDSGIWSCCDKPGSGKLDSVITRTWQSMLETCYAGACQTDPPLIDNWHGAFKFVVDKAEEGHALPPFARHVAANLGLTYPAVADLDPQYLESLATPLEAMSYDAIFDRALENVLATGSLIAKAVFQNDNSYATALVNCNLDTGKDDQGNHIYWKKGVS | not soluble
6 | MLNITEDEIDSISLLNNPLKDPSKRSIIIIDHSRNDRSPILIGLQGFFGTNRSFMNRYFNKVDFISVLEKIAEKAENDGFIIALPDTMTSLYGNQYINSPAVGNYEDFIVSDVLEYLFKRYGKRPVGLFGKSSGGFGAYTLAVRHPDKISGFVDVAGDSGFEYCYLPDFPAAIKYFRRYGVLEWYTYVKSKMNMSPEDMKVVNVLAMSAFYSPDQEAEMGIGLPFDTRTGLLKYDVWDKWRRLDPAFNISNNIDVLKDMAVFMQVGSRDDFHIDIGMEAMHNFLEKNGIVHFFETYDETHFDLDYLYLKSLPLLIELISD | not soluble
7 | MDLQHWQAQFENWLKNHHQHQDAAHDVCHFRRVWATAQKLAADDDVDMLVILTACYFHDIVSLAKNHPQRQRSSILAAEETRRLLREEFEQFPAEKIEAVCHAIAAHSFSAQIAPLTTEAKIVQDADRLEALGAIGLARVFAVSGALGVALFDGEDPFAQHRPLDDKRYALDHFQTKLLKLPQTMQTARGKQLAQHNAHFLVEFMAKLSAELAGENEGVDHKVIDAFSSAGLEHHHHHH | soluble
8 | MRIARRAVEEWVEHGRRLDVEAGGKLGRPGAAFVTLERRSGDGWELRGCIGVVRPVLPLVEAVVTAAVDAASSDPRFEPLSREELDRVRVEVTVLGSMEPLPKKPHERPALVEVGLHGLYVEKPPYAGLLLPQVAVDEGWDPILFLTWACIKAGLPGTCWLREDVEIYRFRAAVWRETEPRGPVVRRDLAREAAAKGVNARVSTHISSCKSLEHHHHHHTHISSCKSLEHHHHHHTHISSCKSLEHHHHHHTHISSCKSLEHHHHHHTHISSCKSLEHHHHHHTHISSCKSLEHHHHHHTHISSCKSLEHHHHHH | not soluble
9 | MGSDKIHHHHHHMSNANPSRLGMVNGTGADDALFLKVFGGEVLTTFAENNVFLPLTMSRTITSGKSAQFPVLGKNTAYYHVPGAELNGNNILNAERVITVDGLLVSPVFIAKIDEAKTHYDVRSQYTSECGASLSNQADRTISQVLINAARSTATITGGFGGTKLVDAAFGTDGDKLAAGIFGIAQTFDEKDVPETDRYAAVRPAQYYLMVAGTKVLNRDWGGSGSYMDGKVLKVAGVSIVKSNHIPKSVITGSAQAAYDGDFTKTVAVGFHKSAVGTVKLLDLQTEGEYQIQRQGTLIVAKYAMGHGVLRPEAAVELASA | not soluble
10 | GMNNRELYGNIRDVYHLLQKNLDKAIEQYDISYVQFGVIQVLAKSGKVSMSKLIENMGCVPSNMTTMIQRMKRDGYVMTEKNPNDQRETLVYLTKKGEETKKQVDVQYSDFLKENCGCFTKEEEGILEDLLLKWKKHLN | soluble
11 | MKAYWIAHVDVTDPQQYSEYTQRAPAAFQLFGGKFLARGGRSEAIEGRATPQRTVIIEFESYEQAVACYHSPQYQNAMSHRQGAAKAEIVIVEGQP | not soluble
12 | RRAELNTNETDESEKVIEGYFAVFNSETELFPGAFEEILPGAFDNTLENDVRALINHDTALVLGRNVSKTLSLRVDDKGLWGQIKINPLDSDAINLYERVKRGDVSQCSFGFNIIKEQEEWRDDGSVKWSLEEVELHEVSVCTFPAY | not soluble
13 | MIKEFCAENLTLLPTLDAGQVSRVELCDNLAVGGTTPSYGVIKEACQLLHDKKISVATMIRPRGGDFVYNDLELKAMEEDILKAVEAGSDALVLGLLTTENQLDTDAIEQLLPATQGLPLVFHMAFDHIPTDHQHQALDQLIDYGFVRVLTHGSPEATPITDNVEQLKSLVTYANKRIEIMIGGGVTAENCQNLSQLTGTAIVHGTKIILEHHHHHH | soluble
14 | MGSDKIHHHHHHMKKLLLPLIIMLLVLAACGNQGEKNNKAETKSYKMDDGKTVDIPKDPKRIAVVAPTYAGGLKKLGANIVAVNQQVDQSKVLKDKFKGVTKIGDGDVEKVAKEKPDLIIVYSTDKDIKKYQKVAPTVVVDYNKHKYLEQQEMLGKIVGKEDKVKAWKKDWEETTAKDGKEIKKAIGQDATVSLFDEFDKKLYTYGDNWGRGGEVLYQAFGLKMQPEQQKLTAKAGWAEVKQEEIEKYAGDYIVSTSEGKPTPGYESTNMWKNLKATKEGHIVKVDAGTYWYNDPYTLDFMRKDLKEKLIKAAK | not soluble
15 | MVRKALWKECLRIGGKVPLLNGEKLREIFRSGRGTGRFAKALGIEYGVDTSFNMLKVAKERGIKVALAKGENLPFKSETFDSVFLVVTICFVENPKQVLKEAHRVLKRDGKLYLGLILKESKWAKFYEEKAKNGHPFYKHARFYSFFELKEMVKDIFSFEEMKSTLLEEPQDSEPVKNKEIKPGFYENSGFTCIRLSKKLLEHHHHHH | not soluble
16 | MGSDKIHHHHHHMDWEDAPLPYKLYRNVPIIPLSLEIPLSLPNSSTTPTLNEIGHYLWCSFGLTQLCQLNSEKILFRRSIPSGGALYPNELYIYLKIDDYPDGIYHYDAAHHRLILIREGNFDSYLTEALGNRCNLQSCFGAAFVSTMFWKNFFKYNNFSYRLQGLDSGVLIGQLLECAKQFGYTNGVYFQFLDRAINHLLGLSEGEESVYAVLPFSTEPQTNWFHNDYREIKTVTSHELLQQIPPLAHEHFVRSKHVNEYPMITKINEASMIESTAQFQTLAHEEHFQHHAHAVQLPKVERLSYDFLQLCRKRYSPDADFILTKWDAAELATLLQEASLSFPYYNDLDGQYVNENARVSLYGCFYNVKDIENGAYSYNSKTHSIQPLRYGDLRYPLQSSMTMDNVNLFQVPLCLHVVGKKDYYTNALGYRGYRIHQMEAGILVHKLVFAATAMGMAGHPLLSFDTNSCDQLYGIEAGNETSLIQIPVGAYRARNWLKGALRN | not soluble
17 | MTQFNGKKIQEKIVSYCIDEVELDLITASDIAFHMTDWLNNLEDLVAFYKTPDEYSPEQLNNILMGFLYHVPNHTIAAAKLLLDVQVTDVFGVGVIADNKDE | not soluble
18 | MAHHHHHHMIRRKLYCSFLFLAILETFKVNQRWSIFISAWYAHEDVDSDYSHSKLYEVLGVHKYATTEEIKKAYRKLSKKYHPDKAKDKNSNNRFNEIAEAYEILGDEEKRKVYDHHGLEAAKNVESNKMDEDPTDHFNIYESFFGGAGGFRREEMKKADSLTLNVEMSLEQLYNGDFFSVIYTRDVNCLRSDDCIMKKKECSGKGYKTVTQQVAPGFIMQNKMRDENCIDRGKAWNPKCSYCPNGMKEEKTIELTLEVEKGMKNNDKIVFEKKGKQEIGYESGDVIFVIQTKKHKVYERKNNDLHQFYEISLKDALIGFSKDIDHISGAPIRINKQTVTFHNEILKVQNKGMPIRDSSKYGDLYIKFLVQFPKYLTEEQKRAISQFL | not soluble
19 | MGHHHHHHSHMSAVGTATPYLHHPGDSHSGRVSFLGAQLPPEVAAMARLLGDLDRSTFRKLLKFVVSSLQGEDCRDCCSVLGSAPTCRRAAGCLLAGMHTLLQQALRLPPTSLKPDTFRDPAPGALHPPRPGRGLGQRGIWEPAALLDSVAQQQGAWLPHVADFRWRVDVAISTSALARSLQPSVLMQLKLSDGSAYRFEVPTAKFQELRYSVALVLKEMADLEKRCERRLQD | soluble
20 | TALIASGLAPQPFYFYGFLPRQNKERTQAIEKLAAREETWILYESPHRLKETLKAIIKITGNDRKMVLCRELTKRFEEFLRGTVEDALNWATDEEVRGEFCIIIEGNANP | not soluble
21 | VINESEKEMIDSIFEFDDRIAEEVMTPRTEVYLINIDTPLNKYVDELLEIKYSRVPVFEGDSDNIIGILYIKDFIVEARKVGFENVNIKNIIHSPYFVPERKNINELFKELQAAKKHMAVLIDEYGGFSGIVTIEDLIEEVMGNISDE | soluble
22 | MGSDKIHHHHHHMTKLRIAVQGCCHGQLNQIYKEVSRIHAKTPIDLLIILGDFQSIRDGQDFKSIAIPPKYQRLGDFISYYNNEIEAPVPTIFIGGNHESMRHLMLLPHGGYVAKNIFYMGYSNVIWFKGIRIGSLSGIWKEWDFNKQRPDWNDLENNNWKANIRNLYHVRISDIAPLFMIKHRIDIMLSHDWPNGVVYHGDTKHLLKLKPFFEQDIKEGKLGSPVTWQLLRDLRPQWWLSAHLHVRFMASIKHNKRSHEPPNKSTSKTKKNNNEIDLDLSSDEDERSGIMNCQEENEYDSKYGETRFLALDKCLPRRRWLEILEIEPDTSHASWKDENHRMFWDPEFINNLVICQKNKNLLSNKPFNSVNWIELSQSNREEGRDIDWENYAIPAYTLDIQKDEVRQTKAFISKFMT | not soluble
